This is an account of results in paper PMC12714700.

The test deals with SARS-CoV-2 Delta spike-ferritin fusion protein (Delta spike-ferritin VLP antigen) (SARS-CoV-2 (Delta variant) | Helicobacter pylori) (UniProt P0DTC2). Description: cryo-EM structure.

As usually defined, the stoichiometry N is the number of molecules, sites or subunits per partner or assembly. For “SARS-CoV-2 Delta spike-ferritin fusion protein (Delta spike-ferritin VLP antigen) (from UniProt P0DTC2 14-1163)”, the stoichiometry N came to 24.
